Laboratory results reported in PMC7619190 (2026).
Where no end group is shown, it is not given here. [ ]: non-standard residue; d: D form. pY = N[C@@H](Cc1ccc(OP(=O)(O)O)cc1)C(=O)O

Target: human SRC SH2 domain (Gln147-Lys252), wild type (human, UniProt P12931-1 147-252)
Experiment: ITC; SH2 pretreated with 1 mM TCEP

B1: optimized SRC binding phosphopeptide (EPQpYEEIP) (peptide)
peptide: EPQ[pY]EEIP
Kd: 293 nM
